# Assay: soluble on expression in E. coli; label from the status in PepcDB or PDB records
row,Sequence,soluble on expression in E. coli
1,MAHHHHHHMADSIKSSNSFQKLDNIDAKETSTVDRKWVALTAYQPVDVVTKTVEVPIIKTVEKYVPKTIIQEKIIHVPKNVTHIVEKIVEVPEVKYIEKIVEVPHIHYKNKYVPKIEIVEKVVERQKIIEKWHDKIVEVPQIKEVVRFKQIEDSEEIIKYVPRNSKNIDWEDEYKKYTESKGLQRYSLDQNNIYQQANSFNQFNENAYNQNAFNRSYELLNKQSSVKSQNNASGENFSQMNFYNQYSGANFEQERSIQASNFEPSGSMQLKRLSSEEIKPAGCCSAACT,soluble
2,AHHHHHHGSEIDKGLAKFGDSLINFLYSLALTEFLGKPTGDRVPNASLAIALELTGLSKNLRRVDKHAKGDYAEALIAKAWLMGLISEREAVEIIKKNLYPEVLDFSKKKEAIGRALAPLLVIISERLYSSQV,soluble
3,MEEPEEPADSGQSLVPVYIYSPEYVSMCDSLAKIPKRASMVHSLIEAYALHKQMRIVKPKVASMEEMATFHTDAYLQHLQKVSQEGDDDHPDSIEYGLGYDCPATEGIFDYAAAIGGATITAAQCLIDGMCKVAINWSGGWHHAKKDEASGFCYLNDAVLGILRLRRKFERILYVDLDLHHGDGVEDAFSFTSKVMTVSLHKFSPGFFPGTGDVSDVGLGKGRYYSVNVPIQDGIQDEKYYQICESVLKEVYQAFNPKAVVLQLGADTIAGDPMCSFNMTPVGIGKCLKYILQWQLATLILGGGGYNLANTARCWTYLTGVILGKTLSSEIPDHEFFTAYGPDYVLEITPSCRPDRNEPHRIQQILNYIKGNLKHVVIEGRGSHHHHHH,soluble
4,MLINVNFNELLLELDSLSVYRNLLNDSVIKKLYELGDLIYKKEPGTDEFIKKYNEFFFELTSGSIQSLKEHIIELILFDENPYSRQSEKLPFENIDKVLIDAASKDLDRLHVISALTSRKFKDYALENICKSESEKRFIDSLPAWEFDGRSNQGKRKLSQNCQKMIDVLVSSNKWGECVKNLSDFYFTNGSGIFARYHAFVWEPSEKPSLRGVEFPDPIRLSDFIGYEQQRLEVIENTEKFVRGLPANNVLLYGDRGTGKSSTVKAIANEYREQGLRIIEIPRKYLVDFPAVLKLIKGRSCKFIIFIDDLAFEDSEESYTVLKSVLEGGVENRPDNVLIYATSNRRHLIKEKFSDRAGFKSDDPDDEIRAQDTMQEKLSLSERFGITVVFSSPDKKQFLQIVEGLVAKRGINIDKDTLQREAMKWELMYNGRSARTARQFVDWLEGSMKLKK,soluble
5,MTYVFGPVSSKRLGQSLGVDLLPSKSCTWNCIYCQLGRTTAFVTERREFFPKEEILSEILETVASGKPIDWITFVGSGETTLYKGLDWLIAEVKKISKIPVAVITNGSLLSDPEVRRELLEADAVLPSLNAGSPELFERIDRPAPGFTFEKHVEGLRLFRQEYRGKLWVEVMLIRGVNDSEEALKEMAAVLAEIRPDMIHLVMPTRPAPESFVGIPDEELIQRAVFVLSSSAPVLHPAKGEMNLGSVGNLLDTVAGIASRHPVQERELEAALGKLFDGDAAKIRETMGELLASGRFEKVRQGSELYWIVKSA,not soluble
6,MSICLIAEEGADSGALSSLAERWGLVSDPNAVMALVLTTERLELRKQDEPKLGAIFVDFVAGPMAHRRRFGGGRGEAVAKAVGIKKDYLPDVVDATAGLGRDAFVLAALGCHVRMVERNPVVAALLDDGLKRGYQDAEIGPWLRERLTLLHASSMTALRDITPPPDVVYLDPMFPHKQKSALVKKEMRVFQSLVGADDDADALLEPARALAKKRVVVKRPDYAPPLAGVPAQSMLETKSHRFDFYLPVLEHHHHHH,soluble
7,VADSASTVTNEFSADHPFIYVIRHVDGKILFVGRYSSPTTN,soluble
8,MRKYRLSEEQRAFSYQEDGTKKSVLLRQIIAISDFNDVIAGTAGGWIDRETVLAQEGNCWIYDQNAIAFGGTVISGNTRITGTSVLWGEVYATDNVWIDNSEISQGAYISDSVTIHDSLVYVQCRIFGHALIDQHSMIVAAQGLTPDHQLLLQIYDRARVSASRIVHQAQIYGDAVVRYAFIEHRAEVFDFASVEGNEENNVWLCDCAKVYGHAQVKAGIEEDAIPTIHYSSQVAEYAIVEGNCVLKHHVLIGGNAVVRGGPILLDEHVVIQGESRITGAVIIENHVELTDHAVVEAFDGDTVHVRGPKVINGEERITRTPLAGLLLEHHHHHH,not soluble
9,MGSDKIHHHHHHMSVMETTHRQYRQTLIFGLIRIVEELFPQEEIKIQYSILDGIYCELENSPLSPREVAQIEEKLHHWLESKPKIMSCAEEDGFFHTKVNHIFVKSLYPAMHPADTYYPFTLIFYHPGFILLFSNPEHPCELPNFVPPEKLAATFLESQRWVENLHLDKVGSINLNIRKGKTTELISLAEALHEKKISLIADRILEQRRNLRIILISGPSSSGKTTFAQRLSTQLQVNGIRPIALSLDNYFCDREHTPLDEYGQYDFEALEALDLPLLNQHVKALIHGEEIECPIFDFVAGRRQPEGIRMKLEPDEILVMEGIHALNPRLLPSLERSHLFKIYISALFQPNIDTHNRISTTDVRLIRRLVRDDKYRGINPEKTLNQWSSVRRGENNNIFPYQEEADVMFNSSLLYELNALKAYAEPLLISIPKDHPYYATASHLLRVLYHFEILDIAKVPFNSILREFIGGGIY,not soluble
10,MSLDPTRVDLLSICKEILTYPEYQERLPAGSAHPNIDSPAIKSLYAEIGRHSRQQTHVPSHYQLPPGDHLLIKQLAKITQDLGTPAKLDEIMVTHGAQQAISLALRATTQKGDIVAVESPCYFGNLLMLESLGLKVVEIPSCPRDGMCPEALAKTMATWDIKALIVTPNFTNPTGAMMPLEKRQQLLLASGNIPIIEDDVFGGLSYDKPLPSLSLLDDKQRVIYVNSLSKTLDSRLRIGWMLAGRYRDQIEQYLLCENMGSLNLMQSAVATFLTSGKYRTHTARMGRVYQNNMRRFIQMLHQYLDEYESLKNRYQINAVQGSFLLWLRLPEDTDSYALYQACNKHRISLLPGTVFGTQEQYRHCVRLSVANFGHETDWSHAMQTLAKLIAKRVCEGHHHHHH,soluble
11,GPGSMLTGALRLSSHRVQDFIVTTCDKAFMLSSRTRLDKKTVETILLAGYSRIPVYLNDNRRHILGTLIVQSLVILCFTNPNKPPRAGEYPLLETLRLPASTTLYNSYLAFQKNSSNMAVVYDNCGVMVGLWTLTDLLCTLYNTSPAHEGSNTHRQELMVTLLESMKAMNAARRKAQGNVNSAIESEEFFVGGRKK,not soluble
12,MGSDKIHHHHHHMSETNAQKVQEVIIAGMSKTVANYDYAMSELEALVAANNMHAALRIDQGLEKPNPATFFGKGKVVEIKEVAAANDLHIMVINADLTPSQVRNLEEQTDIQIIDRTGLILEIFGNRARSKEAKLQVKIAQLQYQLPRLRTSISNRLDQQAGAAAGGGGGFTNRGAGETQLELNRRTIQDRISHAKHELKELNKDEVVRRSQRDKAGLPNVALVGYTNAGKSTTMNGLVKLFGKGEDKQVFEKDMLFATLDTSIRQLTFPDNKQLLLSDTVGFVSDLPHNLINAFRSTLAEAANADLLIQVIDYADPHYKEMMATTEKTLKEIGVHDVPMIYAFNKADLTEADYPNQQDDQLIYTARDEASLQALTSMIKAKVFKNYVTTTLLIPFNDGEVVAYLNDHANILKTDYLADGTQLTVELNTVDAQRYEKYVVTPA,not soluble
13,MVIRVYIASSSGSTAIKKKQQDVLGFLEANKIGFEEKDIAANEENRKWMRENVPENSRPATGYPLPPQIFNESQYRGDYDAFFEARENNAVYAFLGLTAPPGSKEAEV,soluble
14,MSLSQFAAGAGKKAGEFYTPQEVSRILAEIVAIGHQRLRNVYDPTCGSGSLLLRAASIGNAVDIYGQEKNPTTYNLARMNMLLHGIRFSNFKIENGDTLEWDAFGDTQFDAVVANPPFSAEWSAADKFNTDDRFSKAGRLAPRKTADYAFILHMIYHLNEGGTMACVAPHGVLFRGNAEGVIRRFLIEKKNYVDAIIGLPANIFYGTSIPTCILVFKKEGHHHHHH,not soluble
15,MSYAKEMLDAIEAGQMETAKQLFTQVLAHDDDETQYNLAEELYALGFNGQAKRLYQGLLGRYPDQGDLATALADIAVSDGDTDAALNYLSRIQPGDPAYVQSLVSAADVYQTLGLYEVSEQKLLEAKRLAPDEPVVTFALGEFYFDWGHFAEAISAYNELLAAGTTELAGVNIEARLAASLAQTGQYEDAVAAYEDVGVDALDLNGRFELGGLYLQLDDPAKAITNLQAVIDSDPSYANAYLPLARAYEAQNQPDKALDTVQAGVMVDDTNPTLYALGGKLALSEDNVKLAETYLQKALAIDPEDQGNMLAWSNFLVQEERDQENVDFLDQIDRSGDVDPQIYWNMAKSYDRLENIKKARENYLLAFNRFQDSPDFLHDIIDFFQSTGARAELKAALVRYLKLVPTDDEMQARLDELNAETDLEHHHHHH,soluble
16,MRKYAAIALCTSAILAGCNTSNVSQEPKKEKKVQEVAIQKEALQEQGKISYTPITHESTNTSIHITDLKDSLNEVQYKIWRTADGKERAKSFSSKEKEKQFTIPFDIKEFEGKRGEFQIEATGMKEDGKTIPLTKSIITFEQKVPVLMYHAIDDYHGQGIKDLFVSPANFEAQMKHLKDNGYTLLTFERWGDINKVNKPIFVTFDDGMKNNMNAFRVLQKLKDDTFKPAATEYMIVDNVDVEGALSTSEIKEMVDSGIFSVQSHTATHADLPKITNYEEELKGSKEKLEKITGKPVIAIAYPFGHVDDKVVTETKKYYQFATTTKPGQFITKGEPDELLKMKRVRIHHTTTVEQFASSIK,not soluble
17,SNATAYIIVGLTPKDAEKLQQYGARVASTLAKYSGEVLVKGSVEQLHGKFEHKAQVILEFPSREDAYNWYHSEEYQALISTRDLGMDSQFQLIG,soluble
18,MTMQLIGKKSFPRKANRGAKTRNPSIYWNYRQFICSSSSGYPIPMNFSDEFDFDEDRVYEMLCSDDENTTDYSDEIIAIIDANMRSLWIFQL,not soluble
19,MSSNPLRFFVLTIFPHIISCYSEYGIVKQAIKKGKVEVYPIDLREFAPKGQVDDVPYGGLPGMVLKPEPIYEAYDYVVENYGKPFVLITEPWGEKLNQKLVNELSKKERIMIICGRYEGVDERVKKIVDMEISLGDFILSGGEIVALAVIDAVSRVLPGVLSEPQSIQEDSFQNRWLGYPVYTRPREYRGMKVPEELLSGHHKLIELWKLWHRIENTVKKRPDLIPKDLTELEKDILNSILSGKSFKEWLKEHKHLLLEHHHHHH,not soluble
20,MSLSHNSSLPPFTASGFAEDQGAVRIWRKDSGDNVHFLAVFSPWRSGDTTTREYRWQGDNLTLININVYSKPPVNIRARFDDRGDLSFMQRESDGEKQQLSNDQIDLYRYRADQIRQISDALRQGRVVLRQGRWHAMEQTVTTCEGQTIKPDLDSQAIAHIERRQSRSSVDVSVAWLEAPEGSQLLLVANSDFCRWQPNEKTFEGHHHHHH,not soluble
21,MFQISELANYRLCKRCSGRIFAYHYHGISNLERGEYLQFAIGCETGNPDFSFVDSKNCDICHGIFDRFDDIYDLVAKKVGDAQYSTFLVGSVFPQDTIRMEEDIQKKFGSSGESIKKEFNREFGKYFSARTGKEYSQDNPDLTILVNAEYLFVDVKIRSIYIYGKYRKFRRDMPQTRWIHRPNGDTVESVIGSVFTRYAGGTNYYLHGSGREDVDVRMLGNGREFVLEVENPRYREFELDPVVKEINTSGKGVEIFDVKFSSHDAVSEVKLEKHRKVYDALVVSDRPIDESRLLEACINLTGKNIYQRTPLRVAQRRSDLVRTRRIDQVDLVGVSANEAEILISAEAGTYIKELVNGDGGRTRPSLSEMYGSPLNVKELDVIKICRGEDLEHHHHHH,soluble
